According to patent CN117946265A (HISUN BIO PHARMACEUTICAL CO LTD; ZHEJIANG BORUI BIOLOGICAL …, dated 2024):
Numbering of substitutions follows the chain as printed. Values joined by “and” are separate entries in the source; they are usually repeats but may differ in a detail not shown here. Equal values may be shown once.

T1: 人CX3CL1胞外区蛋白 CX3CL1(Q25-Q341)-6xHis (human, UniProt P78423 25-341)
T1 construct: Expressed in 293 cells; also called huCX3CL1-His; Fractalkine
T1 sequence: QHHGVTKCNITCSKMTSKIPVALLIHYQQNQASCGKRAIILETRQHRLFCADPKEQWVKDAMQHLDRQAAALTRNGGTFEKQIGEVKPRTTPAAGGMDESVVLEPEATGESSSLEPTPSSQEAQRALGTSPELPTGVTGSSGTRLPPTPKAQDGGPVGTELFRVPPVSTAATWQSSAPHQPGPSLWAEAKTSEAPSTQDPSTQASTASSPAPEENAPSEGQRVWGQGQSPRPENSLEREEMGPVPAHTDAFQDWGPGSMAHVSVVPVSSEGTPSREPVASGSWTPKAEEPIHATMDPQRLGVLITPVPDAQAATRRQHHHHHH

B1: mAb017 (antibody, V domains shown)
VH: QIQLVQSGPELKKPGETVKISCKASVYTFTEYAMHWVKQAPGKGFKWMGWINTNSGEPTYADDFKGRFAFSLETSASTAYLQINNLKNEDTATYFCGRGRVVGSFDYWGQGTTLTVSS
VL: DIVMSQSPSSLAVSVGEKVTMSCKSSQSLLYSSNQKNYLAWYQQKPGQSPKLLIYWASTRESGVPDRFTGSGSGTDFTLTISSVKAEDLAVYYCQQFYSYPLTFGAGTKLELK
notes: Murine monoclonal antibody purified from hybridoma supernatant; also called 36C7-1G2
B2: C032 (antibody, human IgG2, kappa, V domains shown)
VH: EVQLQQSGPELVKPGASVKISCKASGYTFTDYYMNWVKQSHGKSLEWIGDINPNNGGTSYNQKFKGKATLTVDKSSSTAYMELRSLTSEDSAVYYCASSGNSYVDYWGQGTTLTVSS
VL: DIVMTQSHKFMSTSVGDRVSITCKASQDVSTAVAWYQQKPGQSPKLLIYWASTRHTGVPDRFTGSGSGTDYTLTISSVQAEDLALYYCQQHYSSPYTFGGGTKLEIKR
notes: Human-mouse chimeric antibody of mAb032 with human IgG2 constant region, expressed in CHOK1; also called 嵌合抗体C032
B3: C022 (antibody, human IgG2, kappa, V domains shown)
VH: B2 VH with S59N, Y94F
VL: B2 VL with S20N
notes: Human-mouse chimeric antibody of mAb022 with human IgG2 constant region, expressed in CHOK1; also called 嵌合抗体C022
B4: C032NA (antibody, human IgG2, kappa, V domains shown)
VH: B2 VH with G56A
VL: B2 VL
notes: Chimeric IgG2 mutant of C032 removing the NG hot spot of HCDR2 (NG to NA)
B5: C032QG (antibody, human IgG2, kappa, V domains shown)
VH: B2 VH with N55Q
VL: B2 VL
notes: Chimeric IgG2 mutant of C032 removing the NG hot spot of HCDR2 (NG to QG)
B6: Tab#1 (antibody, human IgG2, kappa, V domains shown)
VH: QVQLVQSGAEVKKPGASVKVSCKASGYTFTNYYIHWVKQAPGQGLEWIGWIYPGDGSPKFNERFKGRTTLTADKSTNTAYMLLSSLRSEDTAVYFCATGPTDGDYFDYWGQGTTVTVSS
VL: DIQMTQSPSSLSASVGDRVTITCRASGNIHNFLAWYQQKPGKAPKLLIYNEKTLADGVPSRFSGSGSGTDYTLTISSLQPEDFATYFCQQFWSTPYTFGGGTKVEIKR
notes: also called Quetmolimab; CX3CL1阳性对照抗体
B7: HumAb032-4 (antibody, human IgG2, kappa, V domains shown)
VH: EVQLVQSGAEVKKPGATVKISCKASGYTFTDYYMNWVQQAPGKSLEWMGDINPNQGGTSYNQKFKGRVTLTVDKSTSTAYMELSSLRSEDTAVYYCASSGNSYVDYWGQGTTVTVSS
VL: DIQMTQSPSSLSASVGDRVTITCKASQDVSTAVAWYQQKPGKAPKLLLYWASTRHTGVPSRFSGSGSGTDYTLTISSLQPEDFATYYCQQHYSSPYTFGGGTKVEIKR
notes: Full-length humanized IgG2/kappa antibody
B8: HumAb022-4 (antibody, human IgG2, kappa, V domains shown)
VH: B7 VH with S59N
VL: B7 VL
notes: as for B7
B9: mAb022 (antibody, V domains shown)
VH: B2 VH with S59N, Y94F
VL: DIVMTQSHKFMSTSVGDRVNITCKASQDVSTAVAWYQQKPGQSPKLLIYWASTRHTGVPDRFTGSGSGTDYTLTISSVQAEDLALYYCQQHYSSPYTFGGGTKLEIK
notes: Murine monoclonal antibody purified from hybridoma supernatant; also called 15F7B2
B10: mAb032 (antibody, V domains shown)
VH: B2 VH
VL: B9 VL with N20S
notes: Murine monoclonal antibody purified from hybridoma supernatant; also called 18H6F1

Target: T1, 人CX3CL1胞外区蛋白 CX3CL1(Q25-Q341)-6xHis
Assay: FACS competition: antibody blocks huCX3CL1-His binding to CHOK1-hCX3CR1 cells

Row | Binder | IC50
1 | B1 | 6.1 nM
2 | B2 | 0.731 nM
3 | B3 | 0.885 nM and 1.7 nM
4 | B4 | 0.865 nM
5 | B5 | 0.811 nM and 1.49 nM
6 | B6 | 1.96 nM
7 | B7 | 1.22 nM
8 | B8 | 1.27 nM
9 | B9 | 7.6 nM
10 | B10 | 11.5 nM

Target: T1, 人CX3CL1胞外区蛋白 CX3CL1(Q25-Q341)-6xHis
Assay: cell-based or functional assay

Row | Binder | 抑制cAMP活性 IC50 | 抑制cAMP活性 MAX
11 | B1 | 0.7 nM | 100
12 | B2 | 3.4 nM | 95.8
13 | B3 | 2.41 nM and 3.28 nM | –
14 | B4 | 3.63 nM | 92.5
15 | B5 | 3.96 nM | 97
16 | B6 | 5.69 nM and 4.07 nM | –
17 | B8 | 2.69 nM | 100
18 | B9 | 0.8 nM | 105
19 | B10 | 1.07 nM | 115

Target: T1, 人CX3CL1胞外区蛋白 CX3CL1(Q25-Q341)-6xHis
Assay: cell-based or functional assay
Remark: another data set of the same source

Row | Binder | 抑制细胞迁移活性 IC50 [nM]
20 | B1 | 7.55
21 | B2 | 2.49
22 | B4 | 4
23 | B5 | 2.27
24 | B6 | 19
25 | B8 | 0.299
26 | B9 | 7.19
27 | B10 | 8.72
